# Values of other authors as cited in article PMC5427221.
# Molecular target: C3b C3b (Homo sapiens) (UniProt P01024)
# Sequence of UniProt P01024 (P01024 566-670): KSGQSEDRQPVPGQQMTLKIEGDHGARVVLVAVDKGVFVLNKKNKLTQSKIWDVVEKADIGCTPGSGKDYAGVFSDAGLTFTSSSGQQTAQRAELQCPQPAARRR
substance,measurement,value
Factor H FH[1-4] (from UniProt P08603),Kd,10 µM
